The target of data set [1] is T1, FjGH65A (Flavobacterium johnsoniae, UniProt A5FBJ5, E616Q).
T1 construct: gene Fjoh_4428; residues 24-681, signal peptide removed, N-terminal His6 tag (pET28a), E. coli BL21(DE3); hexamer (433 kDa by gel filtration)
Nature of the data set: hydrolysis activity. It is filed as biochemical. The note with it: general base catalyst mutant.

The target of data set [2] is T2, FjGH65A (Flavobacterium johnsoniae, UniProt A5FBJ5, E472Q).
T2 construct: gene Fjoh_4428; residues 24-681, signal peptide removed, N-terminal His6 tag (pET28a), E. coli BL21(DE3); hexamer (433 kDa by gel filtration)
Nature of the data set: hydrolysis activity. The data set is classed as biochemical. The following applies: general acid catalyst mutant.

Data set [3] deals with T3, FjGH65A (Flavobacterium johnsoniae, UniProt A5FBJ5).
T3 construct: gene Fjoh_4428; residues 24-681, signal peptide removed, N-terminal His6 tag (pET28a), E. coli BL21(DE3); hexamer (433 kDa by gel filtration)
In words: X-ray crystal structure of the complex, […] Å. It is filed as binding. The note with it: crystal cryoprotected with 30% (w/v) glucose; four sites: subsites -1, +1, +2 and linker region.

Data set [4] has as its target FjGH65A (Fjoh_4428), GH65 α-1,2-glucosidase from Flavobacterium johnsoniae (Flavobacterium johnsoniae). In words: crystal structure; space group C2, three monomers (MolA, MolB, MolC) in the asymmetric unit; hexamer by the crystallographic two-fold axis, PISA analysis; native 1.54 Å and glucose complex 1.40 Å.
For data set [5] the target is unchanged. Nature of the data set: SEC; gel filtration on HiPrep 16/60 Sephacryl S-200 HR, 20 mM sodium citrate buffer (pH 6.0) with 150 mM NaCl; column calibrated with thyroglobulin, ferritin, aldolase, conalbumin and ovalbumin.
Substrate in data set [6]: OC[C@H]1O[C@H](F)[C@H](O)[C@@H](O)[C@@H]1O
In words: hydrolysis kinetics (assay details for this substrate not stated). The following applies: kinetic conditions for this substrate not stated. It is filed as biochemical, Flavobacterium johnsoniae. The text has this:
hydrolysis kinetics (assay details for this substrate not stated) on FjGH65A

T2 sequence (A5FBJ5 24-681 E472Q): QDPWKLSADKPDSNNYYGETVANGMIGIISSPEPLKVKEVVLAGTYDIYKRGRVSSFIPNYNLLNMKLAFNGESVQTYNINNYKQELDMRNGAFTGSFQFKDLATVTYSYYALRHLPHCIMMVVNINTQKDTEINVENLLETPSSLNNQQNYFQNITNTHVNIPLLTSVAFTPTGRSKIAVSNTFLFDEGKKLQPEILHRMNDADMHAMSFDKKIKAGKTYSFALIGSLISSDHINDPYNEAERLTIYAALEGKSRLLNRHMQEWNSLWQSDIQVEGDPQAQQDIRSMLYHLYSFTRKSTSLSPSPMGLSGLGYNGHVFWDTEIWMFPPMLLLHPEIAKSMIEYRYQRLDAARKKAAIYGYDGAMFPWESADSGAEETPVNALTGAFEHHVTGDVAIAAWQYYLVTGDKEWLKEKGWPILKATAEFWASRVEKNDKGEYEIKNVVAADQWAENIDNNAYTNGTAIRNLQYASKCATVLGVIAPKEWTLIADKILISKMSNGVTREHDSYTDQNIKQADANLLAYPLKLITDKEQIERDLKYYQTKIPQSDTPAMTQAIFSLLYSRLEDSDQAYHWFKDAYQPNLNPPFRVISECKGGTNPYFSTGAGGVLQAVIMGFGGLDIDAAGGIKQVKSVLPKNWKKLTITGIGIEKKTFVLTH
T1 sequence (A5FBJ5 24-681 E616Q): as the sequence (A5FBJ5 24-681 E472Q) above, with Q449E, E593Q counted along it

Regarding `OC[C@H]1O[C@H](O[C@H]2C(O)O[C@H](CO)[C@@H](O)[C@@H]2O)[C@H](O)[C@@H](O)[C@@H]1O` (mixture of isomers) [Kojibiose], the “activity (% of wild type)” value on FjGH65A [1] and on FjGH65A [2] was below 0.1% each time.

Regarding `OC[C@H]1O[C@@H](O)[C@H](O)[C@@H](O)[C@@H]1O` [β-glucose], the “X-ray crystal structure of the complex, 1.40 Å” value at FjGH65A [3] is given as “Each monomer of FjGH65A binds four β-glucose molecules”.

Turning to “FjGH65A (Fjoh_4428), GH65 α-1,2-glucosidase from Flavobacterium johnsoniae (enzyme)”, the stoichiometry N in data set [4] and in data set [5] was 6 throughout.

B1: FjGH65A (Flavobacterium johnsoniae UW101) (protein)
chain: QDPWKLSADKPDSNNYYGETVANGMIGIISSPEPLKVKEVVLAGTYDIYKRGRVSSFIPNYNLLNMKLAFNGESVQTYNINNYKQELDMRNGAFTGSFQFKDLATVTYSYYALRHLPHCIMMVVNINTQKDTEINVENLLETPSSLNNQQNYFQNITNTHVNIPLLTSVAFTPTGRSKIAVSNTFLFDEGKKLQPEILHRMNDADMHAMSFDKKIKAGKTYSFALIGSLISSDHINDPYNEAERLTIYAALEGKSRLLNRHMQEWNSLWQSDIQVEGDPQAQQDIRSMLYHLYSFTRKSTSLSPSPMGLSGLGYNGHVFWDTEIWMFPPMLLLHPEIAKSMIEYRYQRLDAARKKAAIYGYDGAMFPWESADSGAEETPVNALTGAFEHHVTGDVAIAAWQYYLVTGDKEWLKEKGWPILKATAEFWASRVEKNDKGEYEIKNVVAADEWAENIDNNAYTNGTAIRNLQYASKCATVLGVIAPKEWTLIADKILISKMSNGVTREHDSYTDQNIKQADANLLAYPLKLITDKEQIERDLKYYQTKIPQSDTPAMTQAIFSLLYSRLEDSDQAYHWFKDAYQPNLNPPFRVISECKGGTNPYFSTGAGGVLQAVIMGFGGLDIDAAGGIKQVKSVLPKNWKKLTITGIGIEKKTFVLTH
notes: residues 24-681, signal peptide removed, N-terminal His6 tag (pET28a), E. coli BL21(DE3); hexamer (433 kDa by gel filtration)
As to B1, in data set [6], the Km (commonly the concentration of substrate that gives half-maximal velocity) was 3.1 ± 0.2 mM; the kcat (commonly the number of substrate molecules converted per active site and unit of time at saturation) was found to be 56.1 ± 1.8 s⁻¹; the kcat/Km (as a rule, the turnover number divided by the Michaelis constant) was found to be 18100 M⁻¹ s⁻¹.

Values taken from publication PMC8626586, “Structure of a bacterial α-1,2-glucosidase defines mechanisms of hydrolysis and substrate specificity in GH65 family hydrolases” (The Journal of Biological Chemistry, 2021).
